Measurements published in US20210139581A1 (Alector, published 2021).

Assays:
[1] = molecular target: T1, human CD33 on primary human monocyte-derived dendritic cells (human, UniProt P20138 18-364); assay: cell-based or functional assay
[2] = molecular target: T1, human CD33 on primary human …; assay: cell-based or functional assay; remark: listed apart in the source
human CD33 [3] = molecular target: T2, human CD33 (human, UniProt P20138 18-259, limits assumed); assay: BLI (ForteBio), Fab 100 nM on immobilized CD33
T2 construct: Human CD33 immobilized on the BLI sensor tip or the BIAcore C1 chip; also called Siglec-3
Description: (§1) The affinities (KD) of the humanized antibodies for human CD33 were measured for each antibody by BioLayer Interferometry in a ForteBio assay according to standard techniques (Estep et al. (2013) MAbs 5(2): 270-8). […] The assay was carried out at room temperature.
The affinity parameters of two of the antibodies, 64.1.2 and 64.1.8, were measured in a separate experiment by BIAcore, where they were directly compared to the parental antibody, AB-64.1, the parental humanized antibody, AB-H64, and the Chimeric Ab.

[4] = molecular target: T1, human CD33 on primary human …; assay: cell-based or functional assay; remark: listed apart in the source
human CD33 [5] = molecular target: T2, human CD33; assay: SPR (BIAcore), Fab over CD33 on C1 chip
Description: The affinity parameters for 10 of the 88 humanized antibodies (AB-H1, AB-H3, AB-H6, AB-H11, AB-H22, AB-H24, AB-H26, AB-H63, AB-H64, and AB-H71) were measured in a separate experiment by a more sensitive technique, surface plasmon resonance (BIAcore), and compared to Chimeric Ab and Chimeric Ab #2. BIAcore measurements were performed as follows: human CD33 was immobilized on the surface of a C1 chip, and Fabs were injected for 300 s to monitor association, followed by a 900 s flow in running buffer to monitor dissociation. The Fabs were measured at 5 concentrations: a high concentration of 27 nM and 3-fold serial dilutions.
In a separate experiment, as determined by the more sensitive BIAcore technique, affinity parameters of affinity matured antibodies derived from the humanized antibody AB-H64 were measured and were directly compared to that of the Chimeric Ab, according to the method described in Example 1 above.

human CD33 [6] = molecular target: T2, human CD33; assay: BLI (ForteBio), Fab 100 nM on immobilized CD33; remark: listed apart in the source
Description: as §1
The affinities of AB-H64 and its variants (Table 5) for human CD33 were measured by Fortebio assay according to the method described in Example 1 above.

T2 sequence (P20138 18-259 limits assumed): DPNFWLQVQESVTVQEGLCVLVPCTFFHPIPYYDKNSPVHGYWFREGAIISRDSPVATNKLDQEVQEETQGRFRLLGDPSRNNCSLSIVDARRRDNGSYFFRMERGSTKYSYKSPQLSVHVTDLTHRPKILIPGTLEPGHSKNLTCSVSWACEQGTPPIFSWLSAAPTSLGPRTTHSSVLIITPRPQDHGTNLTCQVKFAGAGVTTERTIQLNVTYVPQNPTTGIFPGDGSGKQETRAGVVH
T1 sequence (P20138 18-364): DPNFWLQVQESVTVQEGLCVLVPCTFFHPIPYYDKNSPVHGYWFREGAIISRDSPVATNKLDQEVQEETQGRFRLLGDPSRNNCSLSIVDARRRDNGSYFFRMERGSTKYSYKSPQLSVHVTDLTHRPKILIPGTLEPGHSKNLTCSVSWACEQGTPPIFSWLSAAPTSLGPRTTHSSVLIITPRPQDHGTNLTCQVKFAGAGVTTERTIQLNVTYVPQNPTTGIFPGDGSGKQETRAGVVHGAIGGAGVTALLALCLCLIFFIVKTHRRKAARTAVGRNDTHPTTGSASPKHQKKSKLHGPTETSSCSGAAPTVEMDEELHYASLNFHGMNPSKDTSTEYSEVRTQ

Row | Binder | Maximal Downregulation (% CD33 remaining) [1] | Receptor downregulation (pM, EC50) [1] | Receptor downregulation (% remaining at 0.16 µg/mL antibody) [2] | Kd (human CD33 [3]) | also measured
1 | AB-64.1 huIgG1 (antibody) heavy: not shown light: DIVLTQSPDSLAVSLGERATINCRASQSVSTSTYSYMHWYQQKPGQPPKLLIKYASNLESGVPDRFSGSGSGTDFTLTISSLQAEDVAVYYCQHSWEIPLTFGQGTKLEIKRTVAAPSVFIFPPSDEQLKSGTASVVCLLNNFYPREAKVQWKVDNALQSGNSQESVTEQDSKDSTYSLSSTLTLSKADYEKHKVYACEVTHQGLSSPVTKSFNRGEC | 17.5% | 36.2 pM |  |  | 
2 | AB-64.1 huIgG2 (antibody) heavy: QVQLVQSGAEVKKPGASVKISCKASGYTFTDYNLHWVRQAPGQGLEWIGFIYPSNGITGYAQKFQGRATLTVDNSTSTAYMELSSLRSEDTAVYYCARSDVDYFDYWGQGTLLTVSSASTKGPSVFPLAPCSRSTSESTAALGCLVKDYFPEPVTVSWNSGALTSGVHTFPAVLQSSGLYSLSSVVTVPSSNFGTQTYTCNVDHKPSNTKVDKTVERKCCVECPPCPAPPVAGPSVFLFPPKPKDTLMISRTPEVTCVVVDVSHEDPEVQFNWYVDGVEVHNAKTKPREEQFNSTFRVVSVLTVVHQDWLNGKEYKCKVSNKGLPAPIEKTISKTKGQPREPQVYTLPPSREEMTKNQVSLTCLVKGFYPSDIAVEWESNGQPENNYKTTPPMLDSDGSFFLYSKLTVDKSRWQQGNVFSCSVMHEALHNHYTQKSLSLSPGK light: DIVLTQSPDSLAVSLGERATINCRASQSVSTSTYSYMHWYQQKPGQPPKLLIKYASNLESGVPDRFSGSGSGTDFTLTISSLQAEDVAVYYCQHSWEIPLTFGQGTKLEIKRTVAAPSVFIFPPSDEQLKSGTASVVCLLNNFYPREAKVQWKVDNALQSGNSQESVTEQDSKDSTYSLSSTLTLSKADYEKHKVYACEVTHQGLSSPVTKSFNRGEC | 15.1% | 35.6 pM |  |  | 
3 | AB-64.1 huIgG1 LALAPS (antibody) heavy: not shown light: DIVLTQSPDSLAVSLGERATINCRASQSVSTSTYSYMHWYQQKPGQPPKLLIKYASNLESGVPDRFSGSGSGTDFTLTISSLQAEDVAVYYCQHSWEIPLTFGQGTKLEIKRTVAAPSVFIFPPSDEQLKSGTASVVCLLNNFYPREAKVQWKVDNALQSGNSQESVTEQDSKDSTYSLSSTLTLSKADYEKHKVYACEVTHQGLSSPVTKSFNRGEC | 39.4% | 57.1 pM |  |  | 
4 | AB-64.1.7 (antibody, V domains shown, Variant of AB-64.1) VH: QVQLVQSGAEVKKPGASVKISCKASGYTFTDYNLHWVRQAPGQGLEWIGFIYPSNGITGYAQKFQGRATLTVDNPTSTAYMELSSLRSEDTAVYYCARSDVDYFDYWGQGTLLTVSS VL: DIVLTQSPDSLAVSLGERATINCRASQSVSTSTYSYMHWYQQKPGQPPKLLIKYASNLESGVPDRFSGSGSGTDFTLTISSLQAEDVAVYYCQHSWEIPLTFGQGTKLEIK |  |  | 35.9% | 0.391 nM | 
5 | AB-64.1 huIgG1 SELF (antibody, V domains shown) VH: QVQLVQSGAEVKKPGASVKISCKASGYTFTDYNLHWVRQAPGQGLEWIGFIYPSNGITGYAQKFQGRATLTVDNSTSTAYMELSSLRSEDTAVYYCARSDVDYFDYWGQGTLLTVSS VL: DIVLTQSPDSLAVSLGERATINCRASQSVSTSTYSYMHWYQQKPGQPPKLLIKYASNLESGVPDRFSGSGSGTDFTLTISSLQAEDVAVYYCQHSWEIPLTFGQGTKLEIK | 10.9% | 31.9 pM |  |  | 
6 | AB-64.1 huIgG1 N297A (antibody, V domains shown) VH: QVQLVQSGAEVKKPGASVKISCKASGYTFTDYNLHWVRQAPGQGLEWIGFIYPSNGITGYAQKFQGRATLTVDNSTSTAYMELSSLRSEDTAVYYCARSDVDYFDYWGQGTLLTVSS VL: DIVLTQSPDSLAVSLGERATINCRASQSVSTSTYSYMHWYQQKPGQPPKLLIKYASNLESGVPDRFSGSGSGTDFTLTISSLQAEDVAVYYCQHSWEIPLTFGQGTKLEIK | 41.3% | 29.3 pM |  |  | 
7 | AB-64.1.12 (antibody, V domains shown, Variant of AB-64.1) VH: QVQLVQSGAEVKKPGASVKISCKASGYTFTDYNLHWVRQAPGQGLEWIGFIYPSNRITGYAQKFQGRATLTVDNSASTAYMELSSLRSEDTAVYYCARSDVDYFDYWGQGTLLTVSS VL: DIVLTQSPDSLAVSLGERATINCRASQSVSTSTYSYMHWYQQKPGQPPKLLIKYASNLESGVPDRFSGSGSGTDFTLTISSLQAEDVAVYYCQHSWEIPLTFGQGTKLEIK |  |  | 38.5% | 0.922 nM | 
8 | AB-64.1.14 (antibody, V domains shown, Variant of AB-64.1) VH: QVQLVQSGAEVKKPGASVKISCKASGYTFTDYNLHWVRQAPGQGLEWIGFIYPSNVITGYAQKFQGRATLTVDQSTSTAYMELSSLRSEDTAVYYCARSDVDYFDYWGQGTLLTVSS VL: DIVLTQSPDSLAVSLGERATINCRASQSVSTSTYSYMHWYQQKPGQPPKLLIKYASNLESGVPDRFSGSGSGTDFTLTISSLQAEDVAVYYCQHSWEIPLTFGQGTKLEIK |  |  | 38.4% | 0.743 nM | 
9 | AB-64.1.9 (antibody, V domains shown, Variant of AB-64.1) VH: QVQLVQSGAEVKKPGASVKISCKASGYTFTDYNLHWVRQAPGQGLEWIGFIYPSNQITGYAQKFQGRATLTVDNPTSTAYMELSSLRSEDTAVYYCARSDVDYFDYWGQGTLLTVSS VL: DIVLTQSPDSLAVSLGERATINCRASQSVSTSTYSYMHWYQQKPGQPPKLLIKYASNLESGVPDRFSGSGSGTDFTLTISSLQAEDVAVYYCQHSWEIPLTFGQGTKLEIK |  |  | 37.4% | 1.06 nM | 
10 | AB-64.3 (antibody, V domains shown) VH: QVQLVQSGAEVKKPGASVKISCKASGYTFTDYNLHWVRQAPGQGLEWIGFIYPSNGITGYAEKFEGRATLTVDNSTSTAYMELSSLRSEDTAVYYCARSFVDYFDYWGQGTLLTVSS VL: DIVLTQSPDSLAVSLGERATINCRASQDVSTSTYSYMHWYQQKPGQPPKLLIKYASYLESGVPDRFSGSGSGTDFTLTISSLQAEDVAVYYCEHSWEIPLTFGQGTKLEIK |  |  |  |  | Receptor downregulation (EC50) [4]: 0.0257 nM; Fold Change to AB-H64 (human CD33 [5]): 401 fold; Fold Change to Chimeric Ab (human CD33 [5]): 303 fold; Kd (human CD33 [5]): 0.00537 nM; koff (human CD33 [5]): 2.67e-05 s⁻¹; kon (human CD33 [5]): 4.98e+06 M⁻¹ s⁻¹; Fold affinity improvement over parental Ab (AB-H64) (human CD33 [6]): 6.53 fold; Kd (human CD33 [6]): 0.438 nM
11 | AB-64.1.15 (antibody, V domains shown, Variant of AB-64.1) VH: QVQLVQSGAEVKKPGASVKISCKASGYTFTDYNLHWVRQAPGQGLEWIGFIYPSNVITGYAQKFQGRATLTVDNSASTAYMELSSLRSEDTAVYYCARSDVDYFDYWGQGTLLTVSS VL: DIVLTQSPDSLAVSLGERATINCRASQSVSTSTYSYMHWYQQKPGQPPKLLIKYASNLESGVPDRFSGSGSGTDFTLTISSLQAEDVAVYYCQHSWEIPLTFGQGTKLEIK |  |  | 38.9% | 0.412 nM | 
12 | AB-64.1.10 (antibody, V domains shown, Variant of AB-64.1) VH: QVQLVQSGAEVKKPGASVKISCKASGYTFTDYNLHWVRQAPGQGLEWIGFIYPSNRITGYAQKFQGRATLTVDTSTSTAYMELSSLRSEDTAVYYCARSDVDYFDYWGQGTLLTVSS VL: DIVLTQSPDSLAVSLGERATINCRASQSVSTSTYSYMHWYQQKPGQPPKLLIKYASNLESGVPDRFSGSGSGTDFTLTISSLQAEDVAVYYCQHSWEIPLTFGQGTKLEIK |  |  | 39.8% | 1.45 nM | 
13 | AB-64.1.11 (antibody, V domains shown, Variant of AB-64.1) VH: QVQLVQSGAEVKKPGASVKISCKASGYTFTDYNLHWVRQAPGQGLEWIGFIYPSNRITGYAQKFQGRATLTVDQSTSTAYMELSSLRSEDTAVYYCARSDVDYFDYWGQGTLLTVSS VL: DIVLTQSPDSLAVSLGERATINCRASQSVSTSTYSYMHWYQQKPGQPPKLLIKYASNLESGVPDRFSGSGSGTDFTLTISSLQAEDVAVYYCQHSWEIPLTFGQGTKLEIK |  |  | 38.6% | 1.15 nM | 
14 | AB-64.1.13 (antibody, V domains shown, Variant of AB-64.1) VH: QVQLVQSGAEVKKPGASVKISCKASGYTFTDYNLHWVRQAPGQGLEWIGFIYPSNVITGYAQKFQGRATLTVDTSTSTAYMELSSLRSEDTAVYYCARSDVDYFDYWGQGTLLTVSS VL: DIVLTQSPDSLAVSLGERATINCRASQSVSTSTYSYMHWYQQKPGQPPKLLIKYASNLESGVPDRFSGSGSGTDFTLTISSLQAEDVAVYYCQHSWEIPLTFGQGTKLEIK |  |  | 35.9% | 1.45 nM | 
